The supplement of paper PMC7125110
± gives the standard error. For part of these data: Fewer inactive variants are shown than the library holds.

B1: glmS ribozyme (parent)
chain: AUAAAAGCGCCAGAACUACAGAAAUGUAGUUGACGAGGAGGAGGUUUAUCGAAUUUUCGGCGGAUGCCUCCAAA

Legend:
Conditions in all cases: with glucosamine-6-phosphate
[1] = variants of: B1; test: kcat; higher = faster cleavage; RNA array
How it was run: (§1)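 Over ~14 h at 37 °C, tiles were imaged as glucosamine-6-phosphate (40 μM to 10 mM) in HEPES/KCl/Mg(OAc)2 buffer flowed across sequenced MiSeq chips. The chips carried barcoded ribozyme variants transcribed in situ by E. coli RNA polymerase and tracked with a hybridised Cy3 probe. After normalisation to baseline and to non-cleaving reference variants, one- or two-exponential decay fits of per-tile medians gave kobs. kcat and KM followed from weighted Michaelis–Menten fits across concentrations.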

[2] = variants of: B1; test: KM; higher = weaker cofactor use; RNA array
How it was run: as §1

[3] = variants of: B1; test: self-cleavage kobs at 640 uM GlcN6P; higher = faster cleavage; RNA array
How it was run: as §1

[4] = variants of: B1; test: self-cleavage kobs at 2500 uM GlcN6P; higher = faster cleavage; RNA array
How it was run: as §1

[5] = variants of: B1; test: self-cleavage kobs at 10000 uM GlcN6P; higher = faster cleavage; RNA array
How it was run: as §1

[6] = variants of: B1; test: self-cleavage kobs at 160 uM GlcN6P; higher = faster cleavage; RNA array
How it was run: as §1

[7] = variants of: B1; test: self-cleavage kobs at 40 uM GlcN6P; higher = faster cleavage; RNA array
How it was run: as §1

Variant	kcat [1]	KM [2]	self-cleavage kobs at 640 uM GlcN6P [3]	self-cleavage kobs at 2500 uM GlcN6P [4]	self-cleavage kobs at 10000 uM GlcN6P [5]	self-cleavage kobs at 160 uM GlcN6P [6]	self-cleavage kobs at 40 uM GlcN6P [7]
A33C U46G	9.24e-05 ± 1.2e-05 s⁻¹	1050 ± 490 µM	2.94e-05 ± 1.3e-05 s⁻¹	8.65e-05 ± 2.1e-05 s⁻¹	7.98e-05 ± 1.3e-05 s⁻¹		
G40A C67U	0.000237 ± 3.9e-05 s⁻¹	964 ± 350 µM	9.44e-05 ± 9.9e-06 s⁻¹	0.000218 ± 2.6e-05 s⁻¹	0.000189 ± 2.6e-05 s⁻¹	2.41e-05 ± 1.1e-05 s⁻¹	
A39U C50A	1.72e-05 ± 1.5e-06 s⁻¹					< 1e-05 s⁻¹	
A14C U54C	0.00767 ± 0.0019 s⁻¹	3550 ± 1100 µM	0.000989 ± 0.00014 s⁻¹	0.00305 ± 0.00048 s⁻¹	0.00592 ± 0.00066 s⁻¹	0.000296 ± 4.4e-05 s⁻¹	0.000111 ± 1.2e-05 s⁻¹
C11U C67U	0.000394 ± 2.4e-05 s⁻¹	925 ± 130 µM	0.000171 ± 1.8e-05 s⁻¹	0.000278 ± 3e-05 s⁻¹	0.000364 ± 3.9e-05 s⁻¹	5.21e-05 ± 1e-05 s⁻¹	
G13U U55C	0.000878 ± 0.00013 s⁻¹	3970 ± 1200 µM	0.000149 ± 3.4e-05 s⁻¹	0.000304 ± 5.4e-05 s⁻¹	0.000642 ± 7e-05 s⁻¹	2.79e-05 ± 1.3e-05 s⁻¹	
A12C G13C	6.35e-05 ± 2.1e-06 s⁻¹	1030 ± 240 µM		4.89e-05 ± 2.3e-05 s⁻¹	5.73e-05 ± 7.8e-06 s⁻¹		
C10A A53G	1.35e-05 ± 4.5e-06 s⁻¹					< 1e-05 s⁻¹	< 1e-05 s⁻¹
G40C C67A	0.000136 ± 2.4e-05 s⁻¹		6.63e-05 ± 1.2e-05 s⁻¹	0.000181 ± 2.9e-05 s⁻¹	0.000119 ± 1.3e-05 s⁻¹		
C58G C70U	5.2e-05 ± 3.9e-06 s⁻¹	230 ± 110 µM	3.07e-05 ± 1.1e-05 s⁻¹	5.21e-05 ± 7e-06 s⁻¹	4.8e-05 ± 7.6e-06 s⁻¹	2.43e-05 ± 1.1e-05 s⁻¹	
A42G A52C	1.58e-05 ± 1.8e-06 s⁻¹						
G44A C71U	9.17e-05 ± 8.5e-06 s⁻¹	1020 ± 370 µM	2.9e-05 ± 1e-05 s⁻¹	7.37e-05 ± 9.8e-06 s⁻¹	7.95e-05 ± 9.2e-06 s⁻¹		
U30G U45G	0.00151 ± 0.00041 s⁻¹	2200 ± 950 µM	0.000382 ± 6.4e-05 s⁻¹	0.00102 ± 0.00015 s⁻¹	0.00103 ± 0.00021 s⁻¹	7.13e-05 ± 2.2e-05 s⁻¹	3.05e-05 ± 1.4e-05 s⁻¹
A14C G41A	0.000497 ± 9e-05 s⁻¹	3490 ± 1000 µM	6.95e-05 ± 1.3e-05 s⁻¹	0.000234 ± 4.5e-05 s⁻¹	0.000358 ± 6.2e-05 s⁻¹	3.59e-05 ± 1.5e-05 s⁻¹	
A53U A64U	6.7e-05 ± 2e-06 s⁻¹	1330 ± 190 µM		4.18e-05 ± 1.2e-05 s⁻¹	5.95e-05 ± 7.3e-06 s⁻¹		< 1e-05 s⁻¹
G59U C68A	2.28e-05 ± 4.9e-06 s⁻¹						

Variant	kcat [1]	KM [2]	self-cleavage kobs at 640 uM GlcN6P [3]	self-cleavage kobs at 2500 uM GlcN6P [4]	self-cleavage kobs at 10000 uM GlcN6P [5]	self-cleavage kobs at 160 uM GlcN6P [6]	self-cleavage kobs at 40 uM GlcN6P [7]
G41C C70A	0.000866 ± 0.00015 s⁻¹	762 ± 230 µM	0.000392 ± 6.6e-05 s⁻¹	0.00078 ± 0.00012 s⁻¹	0.000775 ± 9.6e-05 s⁻¹	0.000116 ± 2.1e-05 s⁻¹	5.77e-05 ± 8.1e-06 s⁻¹
C11U U45C	9.44e-05 ± 1.8e-05 s⁻¹			6.5e-05 ± 1.3e-05 s⁻¹	7.59e-05 ± 1e-05 s⁻¹		
G13U C70U	0.00213 ± 0.00039 s⁻¹	3200 ± 840 µM	0.000329 ± 5.2e-05 s⁻¹	0.000792 ± 0.00018 s⁻¹	0.00172 ± 0.00026 s⁻¹	0.000126 ± 2.3e-05 s⁻¹	2.45e-05 ± 1e-05 s⁻¹
G66A C70U	0.0162 ± 0.0065 s⁻¹		0.00577 ± 0.00081 s⁻¹	0.00738 ± 0.0024 s⁻¹	0.0185 ± 0.0034 s⁻¹	0.00153 ± 0.00021 s⁻¹	0.00075 ± 0.0001 s⁻¹
G29C A33C	< 1e-05 s⁻¹		< 1e-05 s⁻¹				
A14G A64C	0.000278 ± 1.8e-05 s⁻¹	906 ± 140 µM	0.000118 ± 1.4e-05 s⁻¹	0.000217 ± 3.3e-05 s⁻¹	0.000247 ± 3e-05 s⁻¹		
U30A G37C	< 1e-05 s⁻¹		< 1e-05 s⁻¹			< 1e-05 s⁻¹	< 1e-05 s⁻¹
G66C U69C	0.000157 ± 7.2e-05 s⁻¹		7.5e-05 ± 2.8e-05 s⁻¹	6.79e-05 ± 1.5e-05 s⁻¹	0.000137 ± 2.8e-05 s⁻¹		
A36U C61A	< 1e-05 s⁻¹				< 1e-05 s⁻¹		< 1e-05 s⁻¹
G40U A48C	5.25e-05 ± 2.1e-05 s⁻¹				3.45e-05 ± 9.8e-06 s⁻¹	< 1e-05 s⁻¹	
A6U U46G	0.000103 ± 5.5e-06 s⁻¹	7260 ± 730 µM		2.66e-05 ± 1.1e-05 s⁻¹	5.95e-05 ± 1.5e-05 s⁻¹		
G40U U57C	2.46e-05 ± 1.1e-05 s⁻¹			3.3e-05 ± 1.4e-05 s⁻¹			< 1e-05 s⁻¹
G44A U54G	0.000522 ± 0.00012 s⁻¹		0.000231 ± 7.3e-05 s⁻¹	0.000634 ± 0.00013 s⁻¹	0.000438 ± 6.2e-05 s⁻¹		
G40A A53C	0.00179 ± 0.0007 s⁻¹		0.000386 ± 0.00011 s⁻¹	0.000919 ± 0.0002 s⁻¹	0.00217 ± 0.0008 s⁻¹	0.000183 ± 5.8e-05 s⁻¹	
C61G G62C A64G U65A G66U C67G	1.06e-05 ± 1.8e-06 s⁻¹		< 1e-05 s⁻¹		< 1e-05 s⁻¹		
A53G U56C	0.00882 ± 0.0023 s⁻¹	2730 ± 950 µM	0.00135 ± 0.00025 s⁻¹	0.00428 ± 0.001 s⁻¹	0.0073 ± 0.0011 s⁻¹	0.000447 ± 0.00011 s⁻¹	0.000169 ± 2.5e-05 s⁻¹
